According to publication PMC515366, “A Drosophila Pattern Recognition Receptor Contains a Peptidoglycan Docking Groove and Unusual L,D-Carboxypeptidase Activity” (PLoS Biology, 2004):

Substrate: CC(=O)N[C@H]1[C@H](O[C@H]2[C@H](O[C@H](C)C(=O)N[C@@H](C)C(=O)N[C@H](CCC(=O)N[C@@H](CCC[C@@H](N)C(=O)O)C(=O)N[C@H](C)C(=O)O)C(=O)O)[C@@H](NC(C)=O)[C@@H]3OC[C@H]2O3)O[C@H](CO)[C@@H](O)[C@@H]1O
Assay: purified protein
Assay type: biochemical, Drosophila melanogaster
Conditions: 20 mM HEPES pH 7.4, 2.5 mM EDTA, 37 °C, substrate 10–500 μM, releases terminal D-Ala

B1: rPGRP-SA (recombinant Drosophila PGRP-SA) (Drosophila melanogaster) (protein)
chain: GKSRQRSPANCPTIKLKRQWGGKPSLGLHYQVRPIRYVVIHHTVTGECSGLLKCAEILQNMQAYHQNELDFNDISYNFLIGNDGIVYEGTGWGLRGAHTYGYNAIGTGIAFIGNFVDKLPSDAALQAAKDLLACGVQQGELSEDYALIAGSQVISTQSPGLTLYNEIQEWPHWLSNP
notes: full-length secreted protein, own signal peptide removed, 177 residues plus C-terminal 6xHis tag; baculovirus, Hi-5 insect cells; monomer by gel filtration
  Km: 21.4 ± 1.8 µM
  kcat: 0.000133 ± 5.6e-06 s⁻¹
